Measured values published in the nanobody polyreactivity screen of Harvey et al. (2022).

Experiment: yeast display, Sf9 membrane polyspecificity reagent, FACS + sequencing; frameworks hold sequencing errors
Procedure, shortened: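 Synthetic nanobody libraries on Saccharomyces cerevisiae BJ5465 were galactose-induced for 36–48 hours, stained 1 hour at 4 °C with 10% biotinylated, detergent-solubilized Sf9 membrane reagent and enriched on streptavidin microbeads. FACS then separated cells into low and high (top ~1%) gates by anti-HA (expression) and streptavidin (reagent binding) fluorescence. Genes were colony-PCR amplified, MiSeq 2 × 250 sequenced and CDR-length filtered. A clone's polyreactivity label is that of its gate of origin.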

Sequence	polyreactivity (PSR sort gate)
QVQLVESGGGLDQAGGSLRLSCAASGSTFRYYAMGWYRQAPGKERELVAAINWSGGTTSYADSVKGRFTISRDNAKNTVYLQMNSLKPEDTAVYYCAVPYLYKYSRYDYWGQGTQVTVSS	high polyreactivity
QVQLVESGGGLDQAGGSLRLSCAASGSTFTSNAMGWYRQAPGKERELVAAITWSGARTYYADSVKGRFTISRDNAKNTVYLQLNSLKPEDTAVYYCAAYIAGVTGGSGYYYWGQGTQVTVSS	high polyreactivity
QVQLVESGGGLDQAGGSLRLSCAASGSTFYDNAMRWYRQAPGKERELVADISSGGRTNYADSVKGRFTISRDNAKNTVYLQMNCLKPEDTAVYYCAARLYVLRWYPYDYWGQGTQVTVSS	low polyreactivity
QVQLVESGGGLDQAGGSLRLSCAASGSTLVYNDMGWYRQAPGIEREFVAAIRSNDGSTYYADSVKGRFTISGDNAKNTVYLQMNSLKPEDTAGYYCAVVYGYPYLRGYVYGFNYWGQGTQVTVSS	low polyreactivity
QVQLVESGGGLDQAGGSLRLSCAASGYTFLIYAMGWYRQAPGKERELVAAISYRDGRTYYADSVKGRFTISRDNAKNTVYLQMNSLNPEDTAVYYCAATLFYQPYRSYYYWGQGTQVTVSS	high polyreactivity
QVQLVESGGGLDQAGGSLRLSCAASGYTFPYYTMGWYRQAPGKESELVATITRRGDSTYYADSVKGRFTISRDNAKNTVYLQMNSLKPEDTAVYYCNTASYGRHHFRKSSKMDYWGQGTQVTVSS	high polyreactivity
QVQLVESGGGLDQAGGSLRLSCAASGYVMGWYRQAPGKERELVASITRGTSTYYADSVKGRFTISRDNAKNTVYLQMNSLKPEDTAVYYCAARTTSGEWPPGKIGTYLYDYWGQGTQVTVSS	low polyreactivity
QVQLVESGGGLDQAGGSLRLSCADSASTFYRYAKGWSRQAPGKEWELVAAITRTGGSTYADSVKGRFTISRDNAKNTVYLQMNSLKPEDTAVYFCAVQRYFVSSISPFYYWGQGTQVTVSS	low polyreactivity
QVQLVESGGGLDQAGGSLRLSCADSGSIFYVYTMGWYRQAPGKERELVAAITSGDGTYYADSVKGRFTISRDNAKSTVYLQMNSLKPEDTAVYYCNADESAYWKLRHGLGSDSWGQGTQVTVSS	low polyreactivity
QVQLVESGGGLDQAGGSLRLSCAPSGSTFVGYALGWYRQAPGKERELVAAITRGGGSTYYADSVKGRFTISRDNAKNTVYLQMNSLKPEDTAVYYCAAYQHPGLRTSYEYWGQGTQVTVSS	low polyreactivity
QVQLVESGGGLDQAGGSLRLSCDASGGTFLSYAMGWYRQAHGKERELVARINSGSSTYYADSVKGRFTISRDNAKNTVYLQMNSLKPEDTAVYYCATRWVSRTHGYWGQGTQVTVSS	low polyreactivity
QVQLVESGGGLDQAGGSLRLSCPASGRTISRNTMGWYRPAPGKERELVAGITYGGDRTYYADSVKGRFTISRDNAKNTVYLQMNSLKPEDTAVYYCAAPWYWKGLRDYWGQGTQVTVSS	low polyreactivity
QVQLVESGGGLDQAGGSLRLSCPASGSTFSNYAMGWYRQEPGKERELVAAISVRGGSTYYADSVKGRFTISRDNAKNTVYLQMNSLKPEDTAVYYCNADTDYRDDMDYWGQGTQVTVSS	high polyreactivity
QVQLVESGGGLDQAGGSLRLSCSASGITFKSYAMGWYTQSPGKEREVVAAISRRGGSTYYADSVKGRFTISRDNAKNTVYLQMNSLKQEDTAVYFFAADSGREPKGPSRLTYWGQGTQVTVSS	high polyreactivity
QVQLVESGGGLDQAGGSLRLSWAASAFIFGLYAMGWYRQAPGKERELVAAITSVESTKYADSVKGRFTISRDHAKNTVYLQMNSLKPEDTAVYYCATDWSLEDDYWGQGTQVTVSS	low polyreactivity
QVQLVESGGGLDQAGGSLRLTCAPYGLISDRNAIGWYRQAPGKERDLVASIRSGGSTYYADSVKGRFTFSRDNAKNTVYLEMNSLKPEDTAVYYCAAGGGHTPVSYYLVPYMDYWGQGTQVTVAS	low polyreactivity
QVQLVESGGGLDQAGVRLRLSCAASGRIFISYAMGWYRQAPGNDTELVARISTRGGSTYYADSVKGRFTISRDNAKNTVYLQMNSLKPDDTAVYYCAADHHFCQYPGGGNRWYYYWGQGTHVTVSS	high polyreactivity
QVQLVESGGGLDQAGVSLRLSCAATGRIFYHYAMGWYRHEPGKERELVASITTSGDSTYYADSVKGRFTISRDTAKNTVYLQMNSLKPEDTAVYYCAARSYRGSRYDYWGQGTQVTVSS	high polyreactivity
QVQLVESGGGLEQAGGRLRLICAASGRTFDRYPMGWYRQAPGKESELVAAITWSGGRTYYADSVKGRFTISRDNAKNTVYLQMNSLKPEDTAVYYCAADNSYRGYHSPYEYWGQGTQVTVSS	low polyreactivity
QVQLVESGGGLFEEGGSLRISCAASGRIFAPYAMGWYRHAPGKERELVAAISWSDVSTDYAVSVKGRFTISRDNAKNTVYLQMYSLKPEVTAVYYCAAAYAGYRGWYYYWGQVTQVTVSS	high polyreactivity

Sequence	polyreactivity (PSR sort gate)
QVQLVESGGGLFHAGGSLRLSCAASGSTFGGNDMGWSIQAPGKERELVASISDGGRTNYADSVKGRFTISRDNAKNTVYLQMNSLKPEDTAVYYCAADYAPVAFDYWGQGTQVTVSS	low polyreactivity
QVQLVESGGGLFHAGGSLRLSCPDSGSTFYRYTMGCYRQAPGKERELVAAITSGGGTDYADSVKARFTISRDNAKNTVYLQLISLKPEDTAVYFCADFLSWRDYYLYWRGSWREDYWGQGTQVTVSS	low polyreactivity
QVQLVESGGGLFKAGGSLRLSCAASGFNFSNYAKGWYRQAPGKERELVATISWSGGRTYYADSVKGRFTISRDNAKNTVYLQMNSLKPEDTEVYYCAAEYYTGYFKYDYWGQGTQVTVSS	high polyreactivity
QVQLVESGGGLFQAGGILRLSCAASGIIFWDNAMGWYRQAPGKERELVAAISRSGSRTYYADSVKGRFTISRDNAKNTVYLQMNSLKPEDTAVYYCARRYRARGSMYYWGQGTQVTVSS	high polyreactivity
QVQLVESGGGLFQAGGRLRLSCAPSGFNFGGYVMGWYRQAPGKDRELVAAISSSGGITHYADSVKGRFTISRDNANNTVYLQMNSLKPEDTEVYYCNALYRKRYYWGQGTQVTVSS	high polyreactivity
QVQLVESGGGLFQAGGSHRLSCAASGSTFKQYAMGWYRQAPGKERELVAAIDRGGSTYYADSVKGRFTITRDNAKITVYLQMTSLKPEDTAVYYCAARFVQYRYAYDYWGQGTQVTVSS	low polyreactivity
QVQLVESGGGLFQAGGSLRISCAASGRIFTKNTMGWYRQPPWKERELFAAIRSRAGSTYYADSVKGRFTISRDNAKNTVYLQMNSLKPEDTAFYYCAVPWFRSVDFDYWGQGTQVTVSS	low polyreactivity
QVQLVESGGGLFQAGGSLRLICAASGSTFRFYAMGWYRQAPAKERELVAVIRSTGSTYYADSVKGRFTISRDNAKNTVYLQMYSLNPDDTAVYYCAAQNAWWSNGRSYDYWGQGTQVTVSS	low polyreactivity
QVQLVESGGGLFQAGGSLRLSCAASGFIFRSNAMGGYRHAPGKERELVAAISGGGITYYADSVKGRFTISRDNAKNTVYLQMNSLKPEDTAVYYCAVRWYFKTHWGGYHPYEYCGQGTQVTVSS	high polyreactivity
QVQLVESGGGLFQAGGSLRLSCAASGFTFTRYAMGWYRQAPGKERELVATITKRGGSTYYADSVKGRFTISRDNAKNTVYLQMNRLKPEDTAVYYCAADGASRALYDYWGQGTQVTVSS	high polyreactivity
QVQLVESGGGLFQAGGSLRLSCAASGGIFDVYDMGWYRQAPGKERELVAAISEKGGSTYYADSVKGRFTISRDNAKNTGYLQMNSLKPEDTAVYYCAADYVCLSVFSYWAWYDYWGQGTQVNVSS	low polyreactivity
QVQLVESGGGLFQAGGSLRLSCAASGGIFYGNVMGWYRQAPGKERELVADITSVGSTYYADSVKGRFTISRDNAKNTVYLQMNSLIPEDTAVYYCAAEPDHVADSHSGYDYWGQGTQVTVSS	low polyreactivity
QVQLVESGGGLFQAGGSLRLSCAASGIIFTSYAMGWYRQAPGKESEFVAAITRSGSRTYYADSVKGRFTISRDNAKNTVYLQMNRLKPEDTAVYYCAARTYHDSSDSYAGGYWGQGTQVTVSS	low polyreactivity
QVQLVESGGGLFQAGGSLRLSCAASGIIFYDYAMGRYRQPPAKERELVAAITSNGDNTYYADSVKWRFTISRDNAKNTVYLQMNILKPEDTAVYYCAVDGSFAADFDNYLEEYGYWGQGTQVTVSS	low polyreactivity
QVQLVESGGGLFQAGGSLRLSCAASGITFKGYTMGWYRQAPGKERELVATISRGGRTYADSVKGRFTISRDNAKNTVLLQMNSLKPEDTAVYYCAADKYWAQNDYWGQGTQVTVSS	low polyreactivity
QVQLVESGGGLFQAGGSLRLSCAASGRIFGWYAMGWYRQAPGKDRELVAAMSSSTSTYYADSVKGRFTISRDNEKNTVYLEMNSLKPEDTAVYYCNADWYYQRGQNYWFRYDYWGQGTQVTVCS	high polyreactivity
QVQLVESGGGLFQAGGSLRLSCAASGRIFGYNSMGWDRQAPGKERELVAAIRRRGGTTYYADSVKGRFTISRDNAKNTVYLQMNSLKPEDNAVYYCAADLTFSYRQSAGRYSTYGYWGQGTQVTVSS	high polyreactivity
QVQLVESGGGLFQAGGSLRLSCAASGRTFAIYDMGWYRQAPGKEREVVAAIDYSDGSTYYADSVKGRFTISRDNAKNTVYLQMNSLKPEDTAVYYCAADYDAIYLWWGYDYWGQGTQVTVSS	low polyreactivity
QVQLVESGGGLFQAGGSLRLSCAASGRTFEINAMGWYRQAPGKERELVARISWSGGRTYYADSVKGRFTISRDNAKNTVYLQMNSLKPEDTAVYYCAAVLYSGGNYDSWGQGTQVTGSS	high polyreactivity
QVQLVESGGGLFQAGGSLRLSCAASGRTFGKNAMGWYRQAPGKEREFVAAITSRGGSTYYADSVKGRFTISRDNAKNTVYLQMNSLNPEDTGVYYCNREYKRPSQRNEHFYCGQGTQVTVSS	low polyreactivity
